The source of these data is the supplement of paper PMC12042874.

± gives the uncertainty stated by the source.

This series is described as follows: amyloid nucleation score (Sup35N fusion, yeast selection) (log enrichment); library NNK3; higher = more nucleation; inactive = no reads after selection. A digest of the protocol:
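DiMSum was used to calculate nucleation scores as log enrichment of output over input reads, centred on the mode score of non-aggregating sequences. Sequences with fewer than 100 input reads were not scored. Input and output came from Illumina sequencing of plasmid inserts in psi-negative yeast expressing peptides of 20 random codons fused to Sup35N, induced 24 hours with 100 μM copper sulfate and then grown 7 days at 30°C on medium lacking adenine and uracil.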

As to IPNDYAVAYAEGQLLVCELK, the amyloid nucleation score entry is “inactive”.

For IICLK, the amyloid nucleation score entry is “inactive”.

For the substance VVWQTHQVHMVMYERVCTWD, the amyloid nucleation score result was “inactive”.

For the substance GTYVKLLEVFTSFSWFRRFF, the amyloid nucleation score entry was “inactive”.

For TISYMWRLNGWRSNRAFGSI, the amyloid nucleation score entry was “inactive”.

CKLNICRNVEETTIFRLGDV displayed an amyloid nucleation score of 1.39 ± 0.11.

For the substance VTCWGWSFAGGRHCQVEAGV, the amyloid nucleation score was -0.456 ± 0.96.

For the substance HCRDEYYIYNRI, the amyloid nucleation score result was “inactive”.

On to MGVSADTYYNIRM, for which the amyloid nucleation score came out at 0.161 ± 0.43.

For LAIFMDSENSYKRMHTVT, the amyloid nucleation score entry is “inactive”.

GKCRQGYTRMWHNYMLMGIL: the amyloid nucleation score entry is “inactive”.

In the case of SNVEYCLYARLYLGCGVCHP, the amyloid nucleation score is 0.176 ± 0.42.

With TTCFTHGKLPNIRAWSIWTQ, the amyloid nucleation score result is “inactive”.

MPLTFTSRSSDVICLNVGSG showed an amyloid nucleation score of -0.232 ± 0.62.

In the case of RLGFRCSVLSDMLYVGVLGS, the amyloid nucleation score result is “inactive”.

As for AVYLGGGHKSCRRSRRWLVS, the amyloid nucleation score result is “inactive”.

Regarding QSLIEPSD, the amyloid nucleation score result was “inactive”.

In the case of IIEDLLLHWLGVWVFSKKFA, the amyloid nucleation score entry is “inactive”.

On to FYTFYSHLNELLHL, for which the amyloid nucleation score was -0.009 ± 0.66.

Consider RGTMLLRNISIVCQLYPLST, for which the amyloid nucleation score result was “inactive”.

SFLHTQSAKDTFVHNAVTYT: the amyloid nucleation score entry is “inactive”.

Regarding VVLFYDSCSG, the amyloid nucleation score entry is “inactive”.

For CDHCRDKCMANRMSSRSLRW, the amyloid nucleation score result was “inactive”.

Turning to DLSPRYL, the amyloid nucleation score result is “inactive”.

On to NVSYLGEVWYKFRLCVVCSR, for which the amyloid nucleation score turned out to be 0.159 ± 0.27.

As to YGVSMVVENYL, the amyloid nucleation score entry is “inactive”.

Regarding LGKKLDCGDSMRSVRPICRG, the amyloid nucleation score result was “inactive”.

CMVSSVKLNFIYIGYGDSGW: the amyloid nucleation score result is “inactive”.

Take FWTLDRLRMLYVAILQPWSD: the amyloid nucleation score result is “inactive”.

As to CVFIFLKSCKYKVVKGINGV, the amyloid nucleation score result was “inactive”.

As to RSRNAIVLGACYC, the amyloid nucleation score result is “inactive”.

For the substance YDNLTARESSYFIFFCFLVY, the amyloid nucleation score result was “inactive”.

For KEGNGMSFYN, the amyloid nucleation score entry is “inactive”.

For the substance LSDVDPEFLFLLLFFP, the amyloid nucleation score entry is “inactive”.

In turn, LIIGCGIFSLNS registered an amyloid nucleation score of 1.94 ± 0.068.

As for FFFTSKSLGPVTLTLISVSD, the amyloid nucleation score entry is “inactive”.

In the case of VQSKMCVKYFWGRHTRHQLG, the amyloid nucleation score entry was “inactive”.

As to VRFVLDRIACLVGVYIYFWG, the amyloid nucleation score entry is “inactive”.

In turn, FSNGPSAVYYFIYLGLFNKN gave an amyloid nucleation score of 1.48 ± 0.072.

As for RCPTPTWSINGPC, the amyloid nucleation score entry was “inactive”.

As for LGVMSAVRAIGGFEILIGCV, the amyloid nucleation score result was “inactive”.

Take SMSFTQFKGGGSIIITWCWP: the amyloid nucleation score entry was “inactive”.

On to HYKVPWF, for which the amyloid nucleation score entry is “inactive”.

As for NGCTW, the amyloid nucleation score result is “inactive”.

With ALCRASEVIWWARVSGGCVL, the amyloid nucleation score result was “inactive”.

Regarding KCLLV, the amyloid nucleation score result was “inactive”.

In the case of WVDFTTWLKFVFRSSIHYLL, the amyloid nucleation score stood at 0.012 ± 0.68.

As to DGKGPMVYSGMCCRTFRGLV, the amyloid nucleation score entry was “inactive”.

For SCSIIYRPPSIWRYSKRTSL, the amyloid nucleation score result is “inactive”.

As to PYMIEVLRSDVNHDCSHMKW, the amyloid nucleation score result was “inactive”.

Take SFMYVCNLLLSSWSCP: the amyloid nucleation score came to 1.83 ± 0.063.

For the substance LSLAVKVIVKG, the amyloid nucleation score result was “inactive”.

As for VNENLTGFIGV, the amyloid nucleation score result was “inactive”.

In the case of RCAPFNFFPCHIWRYVLTRK, the amyloid nucleation score entry is “inactive”.

For the substance NAMGTFSMGDI, the amyloid nucleation score result is “inactive”.

With NCIIR, the amyloid nucleation score entry is “inactive”.

As to RLAKSMH, the amyloid nucleation score entry was “inactive”.

PNMSIPLLCLCDNISDFHRF displayed an amyloid nucleation score of 1.69 ± 0.12.

In the case of RLCSKRVKSTDGGSEHRMSW, the amyloid nucleation score entry is “inactive”.

Turning to KDLYIIIITRMYRIFKS, the amyloid nucleation score entry was “inactive”.

For the substance IPSIWMGISRK, the amyloid nucleation score result is “inactive”.

With GHMTVSTWWNIVYMAKGYRV, the amyloid nucleation score is -0.425 ± 0.8.

In the case of GVSNRHGGTIYRQRAMHSVG, the amyloid nucleation score entry was “inactive”.

For the substance HREPTNSNRMEIELRKSVWR, the amyloid nucleation score result is “inactive”.

Regarding RFCRRVHMRLDAVGTCVRWW, the amyloid nucleation score entry is “inactive”.

In turn, QLCVISWLGR returned an amyloid nucleation score of 1.14 ± 0.15.

As to CKSSWDVVMSSVSDWFWDGA, the amyloid nucleation score result was “inactive”.

Regarding TYLCFYTKRPDAVYWSTLDH, the amyloid nucleation score entry is “inactive”.

Regarding RVKSVTVMMIFDNYSCMVCN, the amyloid nucleation score is 1.93 ± 0.069.

GYMGVGRIVSA: the amyloid nucleation score result is “inactive”.

On to TVVVGLVGF, for which the amyloid nucleation score was found to be 0.825 ± 0.2.

As to AVFSKGISCGLH, the amyloid nucleation score was -0.434 ± 1.1.

As to CVVYLWWLVSASMLCSNWFG, the amyloid nucleation score entry is “inactive”.

Consider TVGGFAWLDNSLSDRMFDTS, for which the amyloid nucleation score result was “inactive”.

In the case of LFRVSWMLGNKIDISKSIYR, the amyloid nucleation score result was “inactive”.

For WNGILHMMVGGLKTLIGMDY, the amyloid nucleation score result was “inactive”.

As for MYRCNVGLLGVFPRCNPYDA, the amyloid nucleation score result is “inactive”.

For the substance TCSRIQLISNWFRVQLKSNV, the amyloid nucleation score entry is “inactive”.

In the case of WCKCYMSSSWTC, the amyloid nucleation score result is “inactive”.

Take TRLGYKKGFFMTSSSHRLMV: the amyloid nucleation score entry is “inactive”.

For ICFVSCKLFFVDSLCFCFAG, the amyloid nucleation score entry was “inactive”.

Consider KGSVRYIDCIVIL, for which the amyloid nucleation score was determined as 1.77 ± 0.063.

Substance AVENSQFW came in with an amyloid nucleation score of 0.204 ± 0.38.

As for TESQRSNWCTASIKSMYSYS, the amyloid nucleation score result is “inactive”.

For the substance CSAIFCVVRGFRRVK, the amyloid nucleation score result was “inactive”.

Turning to WLSYKSH, the amyloid nucleation score is 0.392 ± 0.54.

With VDRVT, the amyloid nucleation score result was “inactive”.

On to NQQWIP, for which the amyloid nucleation score entry was “inactive”.

In the case of TGSMFRSRPRSEG, the amyloid nucleation score result is “inactive”.

Substance GLYPQWLGDGRWLSSGLATL registered an amyloid nucleation score of 0.138 ± 0.33.

Consider CLMSVSAPFHVFALYIQLFC, for which the amyloid nucleation score entry is “inactive”.

Take STQTLEKNDVWGFLHSYWCR: the amyloid nucleation score is 0.128 ± 0.41.

As to MGGELCY, the amyloid nucleation score result was “inactive”.

Regarding AKFSQVLLLQWGSSPDIDRE, the amyloid nucleation score stood at 1.11 ± 0.18.

Regarding AYSSWALMLGHTMCIYGGFR, the amyloid nucleation score is 1.55 ± 0.13.

For TWLFFRNHTQAFCSYLAHWG, the amyloid nucleation score entry was “inactive”.

As for LTYAALYLNGKMNVENARVV, the amyloid nucleation score result was “inactive”.

Regarding TVKYHGSPCVLHDLLIVERR, the amyloid nucleation score result was “inactive”.

As for VRMQLMWCGP, the amyloid nucleation score entry was “inactive”.

Take MFLFFHVFKDFQIHRDLQDW: the amyloid nucleation score came to 0.08 ± 0.59.

MALLLDILMNNNFISIKGFI: the amyloid nucleation score result was “inactive”.

On to RVMRHLFHFVCNKSLDYWYR, for which the amyloid nucleation score entry is “inactive”.

For the substance DKCRVCISFC, the amyloid nucleation score is 1.14 ± 0.13.

For TFRIVRFCLKILTCRTC, the amyloid nucleation score entry was “inactive”.

With SVYCSCISFGPTSKILVIMD, the amyloid nucleation score worked out at 2.34 ± 0.088.

Regarding VLSVLFFLLLSPPIRFQVEG, the amyloid nucleation score entry is “inactive”.

For the substance CVWAVGVFFGFMIQRQDEER, the amyloid nucleation score result was “inactive”.

For PLCIHLVVMKSKPATNFSGA, the amyloid nucleation score result was “inactive”.

With DSFRDRGCQQKIEIF, the amyloid nucleation score entry is “inactive”.

As for SDYYMENISFCENMRDILFS, the amyloid nucleation score result is “inactive”.

RILMCMLYAAGSMARYPIWG: the amyloid nucleation score entry is “inactive”.

Consider RSRSYRMGSLLVKSWILTLT, for which the amyloid nucleation score entry was “inactive”.

Regarding LNCMQVYFICVTWFAC, the amyloid nucleation score entry is “inactive”.

MPFPVGNFHQGDNMNVSQCG yielded an amyloid nucleation score of 0.61 ± 0.12.

For the substance YVSPNF, the amyloid nucleation score entry is “inactive”.

Regarding VWLWPI, the amyloid nucleation score entry is “inactive”.

With LNTPPQVSMGSEGLSFNMSF, the amyloid nucleation score result was “inactive”.

Turning to PYFFTDLICSFKIGAYEQGS, the amyloid nucleation score entry was “inactive”.

Consider EKRPNPVSICLRWIKEKAT, for which the amyloid nucleation score entry was “inactive”.

With RLFDLVYSGLVFRKHSHTAM, the amyloid nucleation score result was “inactive”.

As to CILKHSGR, the amyloid nucleation score entry is “inactive”.

As to NCQSTTTQGILCISLSYMEI, the amyloid nucleation score result is “inactive”.

With IQASWFNWKWLL, the amyloid nucleation score entry was “inactive”.

NVQSSGSRGAR: the amyloid nucleation score result was “inactive”.

Take SELQYISLIYCDNRVCLHAL: the amyloid nucleation score entry was “inactive”.

TIAVLMLIDCGSRGPFRHLT: the amyloid nucleation score entry is “inactive”.

Regarding NACSARMGVVYNMLPSGESR, the amyloid nucleation score entry is “inactive”.

With DPWDPYFNLRVSYPFKYYLS, the amyloid nucleation score entry was “inactive”.

On to VCFNYDLFYMIRMGFEAVHI, for which the amyloid nucleation score entry is “inactive”.

YRGWLNPEYHRLVN: the amyloid nucleation score was determined as 0.008 ± 0.85.

Turning to SVGMFSVESLVLVKLRLWNL, the amyloid nucleation score result is “inactive”.
